Assay [1] concerns the target NOPLight (human (NOPR part)). The assay can be described thus: other fluorescence titration.
Assay [2] deals with NOPLight (human (NOPR part)). The assay can be described thus: sensor fluorescence kinetics.
Assay [3] deals with NOPLight (human (NOPR part)). Kind of assay: other fluorescence titration. This is another data set of the same source.
Assay [4] addresses NOPLight (human (NOPR part)). The assay can be described thus: other fluorescence titration. This is another data set of the same source.
In assay [5] the target is NOPLight (human (NOPR part)). Kind of assay: sensor fluorescence in brain slices.

Like-named read-outs stand apart in the source and are kept apart here.

For orientation: EC50 means the midpoint of the concentration-response curve. Read a high EC50 as a need for much substance. In the case of “Nociceptin/orphanin-FQ peptide (from UniProt Q13519 130-146)”, the results for the concentration giving a half-maximal response (EC50) in assay [1] and in assay [3] were 28.6 nM and 42.8 nM, respectively. In addition, the results for the ΔF/F0 upon N/OFQ in assay [1] and in assay [4] were 388% and 378%, respectively. In assay [2], this substance had a τON (time constant of signal activation) of 595 ms.
With “endogenous N/OFQ released from PNOC neurons (peptide)”, in assay [5], the F/F0 upon CNO-evoked release was 1.6%.

The values above are taken from PMC10245933.
